From PMC8820655 (bioRxiv, 2022) come the findings set out here.

Assay [1] deals with His-tagged RBD protein of SARS-CoV-2 (SARS-CoV-2, wild type (Wuhan-Hu-1 …, UniProt P0DTC2)). Nature of the assay: BLI. (In general: In BLI a coated tip is dipped into the sample, and binding shifts an interference pattern.)
The target in the next assay is Fc-tagged wild-type RBD (SARS-CoV-2, UniProt P0DTC2). Nature of the assay: BLI.

B1: CoV2–14 (antibody, V domains shown)
VH: EVQLQQSGPGLVKPSQTLSLTCAISGDSVSSNSAAWNWIRQSPSRGLEWLGRTYYRSKWYNDYAVSVKSRITINPDTSKNQFSLQLNSVTPEDTAVYYCAREEQQLVHDYYYYGMDVWGQGTMVTVSS
VL: QAVVTQPASVSGSPGQSITISCTGTSSDIGAYNYISWYQQHPGKAPKLIIYEVSNRPSGISYRFSGSKSGNTASLTISGLQAEDEANYYCSSYAGSISFGGGTKVTVL
As a reminder, the IC50 is the concentration that inhibits the measured activity by half. B1: the “fold change of the avidity KD, RBD loaded at 1000 ng/ml against 40 ng/ml” value in assay [1] worked out at 2 fold. The molecule further had an IC50 with Fc-tagged wild-type RBD of 10.6 nM.

B2: CoV2–06 (antibody, V domains shown)
VH: QVELQESGPGLVKPSGTLSLTCAVSGGSISSNNWWTWVRQPPGKGLEWIGEIHHSGGTNYNPSLKSRVTMSVDKSKNQFSLNLYSVTAADTAVYYCTRDRAGGTYSGFDFWGQGTLVTVSS
VL: QAVVTQPASVSGSPGQSITISCTGTSSDVGGYNYVSWYQQHPGKAPKLMIYDVSNRPSGVSNRFSGSKSGNTASLTISGLQAEDEADYYCSSYTSSSTVVFGGGTKVTVL
As to B2, the “fold change of the avidity KD, RBD loaded at 1000 ng/ml against 40 ng/ml” value in assay [1] was 46 fold. Also, in the assay with Fc-tagged wild-type RBD, it took 39.8 nM to reach half-maximal inhibition (IC50).
